Source: US20030119716A1, “Methods for screening, treating and diagnosing G-protein coupled receptor-related disorders and compositions thereof” (Wyeth, priority 2001, published 2003)

Assays:
[1] = target: Gαi1; assay: cell-based or functional assay
[2] = target: Gαq/i chimera; assay: cell-based or functional assay

attenuation of SRE activation (SRE-luciferase reporter, CHO-D2R cells co-transfected with Gαi1) [1] [%]	reduction in SRE activation (SRE-luciferase reporter, CHO-D2R cells) [2] [%]	inhibition of SRE activation (SRE-luciferase reporter, all quinpirole concentrations, CHO-D2R cells) [1] [%]	reduction in quinpirole-stimulated SRE activation (SRE-luciferase reporter, 100 nM quinpirole, CHO-D2R cells) [1] [%]	Substance
25 to 30	–	–	–	human RGSz1 (from UniProt O76081 1-388)
–	60	> 80	85	human RGS4 (from UniProt P49798 1-205)
